From patent US20240270821A1, “GIP/GLP1/GCG TRI-RECEPTOR AGONISTS AND USES THEREOF” (priority 2023, published 2024) come the findings set out here.

Where a chain is given by its changes, count along the chain named. Starred links: 1 amine or outer side, 2 acyl side, 3 side chain; linkers in the order of their positions; H or OH if unused. Non-standard residues stand in square brackets, D forms with d. Groups on a side chain read outwards from the residue. No end group written: not given here. *: point of attachment. C18 diacid = O=C(O)CCCCCCCCCCCCCCCCC(=O)*; γGlu = O=C(O)[C@H](CCC(=O)[*:2])N[*:1]; αMeL = CC(C)C[C@](C)(N)C(=O)O; Dab = NCC[C@H](N)C(=O)O; AEEA = NCCOCCOCC(=O)O; Aib = CC(C)(N)C(=O)O

To fix the notation:
T1: human GIP receptor (human) (UniProt P48546)
T1 sequence (looked up): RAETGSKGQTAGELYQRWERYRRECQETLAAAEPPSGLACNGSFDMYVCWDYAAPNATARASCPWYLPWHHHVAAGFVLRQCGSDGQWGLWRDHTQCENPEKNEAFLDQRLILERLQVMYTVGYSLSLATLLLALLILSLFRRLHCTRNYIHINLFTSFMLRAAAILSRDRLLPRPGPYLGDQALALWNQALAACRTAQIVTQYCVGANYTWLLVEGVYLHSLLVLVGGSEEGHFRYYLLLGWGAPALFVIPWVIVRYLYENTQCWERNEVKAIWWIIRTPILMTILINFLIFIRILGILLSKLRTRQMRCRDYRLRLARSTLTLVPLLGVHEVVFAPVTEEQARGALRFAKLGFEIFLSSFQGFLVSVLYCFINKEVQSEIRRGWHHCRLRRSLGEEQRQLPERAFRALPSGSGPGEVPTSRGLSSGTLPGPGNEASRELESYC

B1: Example 42 (peptide)
chain: YXQGTFTSDFSRXLDKKAQXAFIEYLLEXGPSSGAPPPGGS
modifications: Aib, αMeL; acylated Lys; C-terminal amide; synthetic construct; SITE 2: note = 2-Aminoisobutyric Acid; SITE 13: note = alpha-methyl-leucine; SITE 17: note = Lysine is chemically modified through conjugation of the epsilon-amino group of the Lysine side chain with (2-[2-(2-Amino-ethoxy)-ethoxy]-acetyl)-(gamma-Glu)-CO-(CH2) 18-CO2H; SITE 20: n
B2: Example 66 (peptide)
chain: YXQGTFTSDFSXXLDKKAQXAFIEYLLEGGPSSGAPPPGGSX
modifications: synthetic construct; SITE 2: note = 2-Aminoisobutyric Acid; SITE 12: note = L-ornithine; SITE 13: note = alpha-methyl-leucine; SITE 17: note = Lysine is chemically modified through conjugation of the epsilon-amino group of the Lysine side chain with (2-[2-(2-Amino-ethoxy)-ethoxy]-acetyl)-(gamma-Glu)
B3: Example 37 (peptide)
chain: YXQGTFTSDFSKXLDKKAQXAFIEWLLEGGPSSGAPPPSEG
modifications: Aib, αMeL; K acylated; C-terminal amide; synthetic construct; SITE 2: note = 2-Aminoisobutyric Acid; SITE 13: note = alpha-methyl-leucine; SITE 17: note = Lysine is chemically modified through conjugation of the epsilon-amino group of the Lysine side chain with (2-[2-(2-Amino-ethoxy)-ethoxy]-acetyl)-(gamma-Glu)-CO-(CH2) 18-CO2H; SITE 20: n
B4: Example 44 (peptide)
chain: B3 chain with W25Y, G29X, E40S
modifications: acylated Lys; Aib, αMeL non-natural; C-terminal amide; synthetic construct; SITE 2: note = 2-Aminoisobutyric Acid; SITE 13: note = alpha-methyl-leucine; SITE 17: note = Lysine is chemically modified through conjugation of the epsilon-amino group of the Lysine side chain with (2-[2-(2-Amino-ethoxy)-ethoxy]-acetyl)-(gamma-Glu)-CO-(CH2) 18-CO2H; SITE 20: n
B5: Example 51 (peptide)
chain: B3 chain with A21Q, W25Y
modifications: synthetic construct; SITE 2: note = 2-Aminoisobutyric Acid; SITE 13: note = alpha-methyl-leucine; SITE 17: note = Lysine is chemically modified through conjugation of the epsilon-amino group of the Lysine side chain with (2-[2-(2-Amino-ethoxy)-ethoxy]-acetyl)-(gamma-Glu)-CO-(CH2) 16-CO2H; SITE 20: n
B6: Example 55 (peptide)
chain: B3 chain with W25Y, G29X, S39G
modifications: synthetic construct; SITE 2: note = 2-Aminoisobutyric Acid; SITE 13: note = alpha-methyl-leucine; SITE 17: note = Lysine is chemically modified through conjugation of the epsilon-amino group of the Lysine side chain with (2-[2-(2-Amino-ethoxy)-ethoxy]-acetyl)2-(gamma-Glu)-CO-(CH2 )18-CO2H; SITE 20:
B7: Example 62 (peptide)
chain: B1 chain with R12X, X29G
modifications: synthetic construct; SITE 2: note = 2-Aminoisobutyric Acid; SITE 12: note = L-ornithine; SITE 13: note = alpha-methyl-leucine; SITE 17: note = Lysine is chemically modified through conjugation of the epsilon-amino group of the Lysine side chain with (2-[2-(2-Amino-ethoxy)-ethoxy]-acetyl)-(gamma-Glu)

The first assay deals with hGLP-1R (Homo sapiens, UniProt P43220). As to the kind of experiment: cell-based or functional assay.
hGLP-1R, sequence (P43220 24-463): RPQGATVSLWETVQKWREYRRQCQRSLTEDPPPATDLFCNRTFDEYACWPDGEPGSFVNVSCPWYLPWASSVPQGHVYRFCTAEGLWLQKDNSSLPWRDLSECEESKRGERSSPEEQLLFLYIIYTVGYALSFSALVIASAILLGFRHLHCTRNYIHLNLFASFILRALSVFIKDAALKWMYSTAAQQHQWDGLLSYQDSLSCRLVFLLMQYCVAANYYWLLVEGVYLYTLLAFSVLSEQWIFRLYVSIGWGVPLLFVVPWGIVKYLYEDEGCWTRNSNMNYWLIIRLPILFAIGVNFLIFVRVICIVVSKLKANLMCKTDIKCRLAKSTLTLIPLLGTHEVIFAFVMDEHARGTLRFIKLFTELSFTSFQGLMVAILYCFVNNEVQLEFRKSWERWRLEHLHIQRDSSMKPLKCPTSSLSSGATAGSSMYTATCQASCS
Regarding B1, the Relative cAMP EC50 is 2.17 nM and the cAMP Rel EC50 (in the presence of 1% HSA) was 700 nM.
With Y[Aib]QGTFTSDFS[Dab][αMeL]LDKK([AEEA-γGlu-C18 diacid])AQ[Aib]AFIEYLLEGGPSSGAPPPGGS-NH2 [Example 67], the Relative cAMP EC50 came out at 4.07 nM and the cAMP Rel EC50, nM (in the presence of 1% HSA) was 683 nM.
Turning to B2, the Relative cAMP EC50 was found to be 3.86 nM and the cAMP Rel EC50, nM (in the presence of 1% HSA) amounted to 329 nM.
On to B3, for which the Relative cAMP EC50 is 1.66 nM and the cAMP Rel EC50 (in the presence of 1% HSA) was 514 nM.
Taken in the same sequence, the figures for B4 were 1.66 nM and 591 nM.
Turning to B5, the Relative cAMP EC50 is 5.8 nM and the cAMP Rel EC50, nM (in the presence of 1% HSA) came out at 1210 nM.
The matching figures for B6: 1.96 nM and 479 nM.
The matching figures for B7: 2.72 nM and 299 nM.

Another assay deals with T1, human GIP receptor (human). The assay can be described thus: cell-based or functional assay.
Consider B1, for which the Relative cAMP EC50 turned out to be 0.115 nM and the cAMP Rel EC50 (in the presence of 1% HSA) worked out at 32.3 nM.
For the molecule Y[Aib]QGTFTSDFS[Dab][αMeL]LDKK([AEEA-γGlu-C18 diacid])AQ[Aib]AFIEYLLEGGPSSGAPPPGGS-NH2 [Example 67], the Relative cAMP EC50 turned out to be 0.34 nM and the cAMP Rel EC50, nM (in the presence of 1% HSA) stood at 73.3 nM.
Taken in the same sequence, the figures for B2 were 0.219 nM and 29.9 nM.
In the case of B3, the Relative cAMP EC50 was 0.207 nM and the cAMP Rel EC50 (in the presence of 1% HSA) was 56.4 nM.
The matching figures for B4: 0.116 nM and 35.9 nM.
As to B5, the Relative cAMP EC50 worked out at 0.421 nM and the cAMP Rel EC50, nM (in the presence of 1% HSA) turned out to be 98.4 nM.
For the molecule B6, the Relative cAMP EC50 amounted to 0.0856 nM and the cAMP Rel EC50, nM (in the presence of 1% HSA) came to 27.8 nM.
B7: the Relative cAMP EC50 is 0.146 nM and the cAMP Rel EC50, nM (in the presence of 1% HSA) is 31.2 nM.

The target of the next assay is human GLP1-R (SNAP-GLP-1R expressed in HEK293 cells) (human) (UniProt P43220). The assay can be described thus: cell-based or functional assay.
human GLP1-R (SNAP-GLP-1R expressed in HEK293 cells) (human), sequence (P43220 24-463): as the sequence (P43220 24-463) above
Turning to B1, the GLP1R Internalization EC50 stood at 61.4 nM and the Internalization % TOP amounted to 58.3%.
The matching figures for Y[Aib]QGTFTSDFS[Dab][αMeL]LDKK([AEEA-γGlu-C18 diacid])AQ[Aib]AFIEYLLEGGPSSGAPPPGGS-NH2 [Example 67]: 50.9 nM and 31.1%.
As for B2, the GLP1R Internalization EC50 is 42.1 nM and the Internalization % TOP was 46.3%.
Taken in the same sequence, the figures for B3 were 51.6 nM and 68.3%.
The matching figures for B4: 51.5 nM and 65%.
For the molecule B5, the GLP1R Internalization EC50 turned out to be 89.2 nM and the Internalization % TOP came out at 55.7%.
Taken in the same sequence, the figures for B6 were 79.5 nM and 70.7%.
Taken in the same sequence, the figures for B7 were 40.3 nM and 44.9%.

In a further assay the target is human glucagon receptor (human) (UniProt P47871). The assay can be described thus: cell-based or functional assay.
human glucagon receptor (human), sequence (P47871 26-477): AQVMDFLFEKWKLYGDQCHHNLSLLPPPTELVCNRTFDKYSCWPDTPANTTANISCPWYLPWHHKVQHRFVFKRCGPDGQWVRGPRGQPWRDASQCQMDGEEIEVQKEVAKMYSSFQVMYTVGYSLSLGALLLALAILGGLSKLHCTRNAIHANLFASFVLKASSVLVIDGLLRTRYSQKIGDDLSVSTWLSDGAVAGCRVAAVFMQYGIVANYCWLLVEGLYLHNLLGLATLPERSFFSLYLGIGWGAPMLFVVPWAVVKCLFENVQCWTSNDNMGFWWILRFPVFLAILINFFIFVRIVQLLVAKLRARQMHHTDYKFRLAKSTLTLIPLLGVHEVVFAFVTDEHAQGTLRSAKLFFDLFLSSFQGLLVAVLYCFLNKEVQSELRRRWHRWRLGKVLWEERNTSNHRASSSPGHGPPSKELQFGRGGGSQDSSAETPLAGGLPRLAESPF
As for B1, the Relative cAMP EC50 came out at 5.83 nM and the cAMP Rel EC50 (in the presence of 1% HSA) came out at 1520 nM.
Consider Y[Aib]QGTFTSDFS[Dab][αMeL]LDKK([AEEA-γGlu-C18 diacid])AQ[Aib]AFIEYLLEGGPSSGAPPPGGS-NH2 [Example 67], for which the Relative cAMP EC50 turned out to be 3.7 nM and the cAMP Rel EC50, nM (in the presence of 1% HSA) is 781 nM.
The matching figures for B2: 3.71 nM and 415 nM.
In the case of B3, the Relative cAMP EC50 turned out to be 6.83 nM and the cAMP Rel EC50 (in the presence of 1% HSA) was determined as 1870 nM.
Taken in the same sequence, the figures for B4 were 2.46 nM and 1050 nM.
For the molecule B5, the Relative cAMP EC50 came to 5.15 nM and the cAMP Rel EC50, nM (in the presence of 1% HSA) was determined as 856 nM.
Taken in the same sequence, the figures for B6 were 5.2 nM and 960 nM.
The matching figures for B7: 3.96 nM and 396 nM.
